Source: patent publication US20180016327A1 (Chugai, published 2018)

B1: CFP0015 15L 92P (antibody, V domains shown)
VH: QVQLLESGGGLVQPGGSLRLSCAASGFTFSSYAMSWVRQAPGKGLEWVSAISGSGGSTYYADSVKGRFTISRDNSKNTLYLQMNSLRAEDTAVYYCARGDQIWYDQWYYFDMWGQGTLVTVSS
VL: DIQMTQSPSSLSASVGDRVTITCRASQSIEDDLAWYQQKPGKAPKLLIYEASNLQSGVPSRFSGSGSGTDFTLTISSLQPEDFATYYCQQYPSSPLTFGQGTKVEIK
B2: CFP0011 (antibody, V domains shown)
VH: QVQLVQSGAEVKKPGSSVKVSCKASGGTFSSYAISWVRQAPGQGLEWMGGIIPIFGTANYAQKFQGRVTITADESTSTAYMELSSLRSEDTAVYYCARDMSEFLGWSNYYSYPMDVWGQGTTVTVSS
VL: DIQMTQSPSSLSASVGDRVTITCRASQSIEDDLAWYQQKPGKAPKLLIYHASSLQSGVPSRFSGSGSGTDFTLTISSLQPEDFATYYCQQSDNSPYTFGQGTKVEIK
notes: IgG format
B3: CFP0015 15L 96Y (antibody, V domains shown)
VH: QVQLLESGGGLVQPGGSLRLSCAASGFTFSSYAMSWVRQAPGKGLEWVSAISGSGGSTYYADSVKGRFTISRDNSKNTLYLQMNSLRAEDTAVYYCARGDQIWYDQWYYFDMWGQGTLVTVSS
VL: DIQMTQSPSSLSASVGDRVTITCRASQSIEDDLAWYQQKPGKAPKLLIYEASNLQSGVPSRFSGSGSGTDFTLTISSLQPEDFATYYCQQYDSSPYTFGQGTKVEIK
B4: CFP0015 15L 94F (antibody, V domains shown)
VH: QVQLLESGGGLVQPGGSLRLSCAASGFTFSSYAMSWVRQAPGKGLEWVSAISGSGGSTYYADSVKGRFTISRDNSKNTLYLQMNSLRAEDTAVYYCARGDQIWYDQWYYFDMWGQGTLVTVSS
VL: DIQMTQSPSSLSASVGDRVTITCRASQSIEDDLAWYQQKPGKAPKLLIYEASNLQSGVPSRFSGSGSGTDFTLTISSLQPEDFATYYCQQYDSFPLTFGQGTKVEIK
B5: CFP0015 15L 96H (antibody, V domains shown)
VH: QVQLLESGGGLVQPGGSLRLSCAASGFTFSSYAMSWVRQAPGKGLEWVSAISGSGGSTYYADSVKGRFTISRDNSKNTLYLQMNSLRAEDTAVYYCARGDQIWYDQWYYFDMWGQGTLVTVSS
VL: DIQMTQSPSSLSASVGDRVTITCRASQSIEDDLAWYQQKPGKAPKLLIYEASNLQSGVPSRFSGSGSGTDFTLTISSLQPEDFATYYCQQYDSSPHTFGQGTKVEIK
B6: CFP0015 15L 94Y (antibody, V domains shown)
VH: QVQLLESGGGLVQPGGSLRLSCAASGFTFSSYAMSWVRQAPGKGLEWVSAISGSGGSTYYADSVKGRFTISRDNSKNTLYLQMNSLRAEDTAVYYCARGDQIWYDQWYYFDMWGQGTLVTVSS
VL: DIQMTQSPSSLSASVGDRVTITCRASQSIEDDLAWYQQKPGKAPKLLIYEASNLQSGVPSRFSGSGSGTDFTLTISSLQPEDFATYYCQQYDSYPLTFGQGTKVEIK
B7: CFP0015 15L 93D (antibody, V domains shown)
VH: QVQLLESGGGLVQPGGSLRLSCAASGFTFSSYAMSWVRQAPGKGLEWVSAISGSGGSTYYADSVKGRFTISRDNSKNTLYLQMNSLRAEDTAVYYCARGDQIWYDQWYYFDMWGQGTLVTVSS
VL: DIQMTQSPSSLSASVGDRVTITCRASQSIEDDLAWYQQKPGKAPKLLIYEASNLQSGVPSRFSGSGSGTDFTLTISSLQPEDFATYYCQQYDDSPLTFGQGTKVEIK
B8: CFP0015 15L 96I (antibody, V domains shown)
VH: QVQLLESGGGLVQPGGSLRLSCAASGFTFSSYAMSWVRQAPGKGLEWVSAISGSGGSTYYADSVKGRFTISRDNSKNTLYLQMNSLRAEDTAVYYCARGDQIWYDQWYYFDMWGQGTLVTVSS
VL: DIQMTQSPSSLSASVGDRVTITCRASQSIEDDLAWYQQKPGKAPKLLIYEASNLQSGVPSRFSGSGSGTDFTLTISSLQPEDFATYYCQQYDSSPITFGQGTKVEIK
B9: CFP0015 15L 96W (antibody, V domains shown)
VH: QVQLLESGGGLVQPGGSLRLSCAASGFTFSSYAMSWVRQAPGKGLEWVSAISGSGGSTYYADSVKGRFTISRDNSKNTLYLQMNSLRAEDTAVYYCARGDQIWYDQWYYFDMWGQGTLVTVSS
VL: DIQMTQSPSSLSASVGDRVTITCRASQSIEDDLAWYQQKPGKAPKLLIYEASNLQSGVPSRFSGSGSGTDFTLTISSLQPEDFATYYCQQYDSSPWTFGQGTKVEIK
B10: CFP0011 11L 30A (antibody, V domains shown)
VH: QVQLVQSGAEVKKPGSSVKVSCKASGGTFSSYAISWVRQAPGQGLEWMGGIIPIFGTANYAQKFQGRVTITADESTSTAYMELSSLRSEDTAVYYCARDMSEFLGWSNYYSYPMDVWGQGTTVTVSS
VL: DIQMTQSPSSLSASVGDRVTITCRASQSIADDLAWYQQKPGKAPKLLIYHASSLQSGVPSRFSGSGSGTDFTLTISSLQPEDFATYYCQQSDNSPYTFGQGTKVEIK
B11: CFP0015 15L 92Q (antibody, V domains shown)
VH: QVQLLESGGGLVQPGGSLRLSCAASGFTFSSYAMSWVRQAPGKGLEWVSAISGSGGSTYYADSVKGRFTISRDNSKNTLYLQMNSLRAEDTAVYYCARGDQIWYDQWYYFDMWGQGTLVTVSS
VL: DIQMTQSPSSLSASVGDRVTITCRASQSIEDDLAWYQQKPGKAPKLLIYEASNLQSGVPSRFSGSGSGTDFTLTISSLQPEDFATYYCQQYQSSPLTFGQGTKVEIK
B12: CFP0015 15L 96F (antibody, V domains shown)
VH: QVQLLESGGGLVQPGGSLRLSCAASGFTFSSYAMSWVRQAPGKGLEWVSAISGSGGSTYYADSVKGRFTISRDNSKNTLYLQMNSLRAEDTAVYYCARGDQIWYDQWYYFDMWGQGTLVTVSS
VL: DIQMTQSPSSLSASVGDRVTITCRASQSIEDDLAWYQQKPGKAPKLLIYEASNLQSGVPSRFSGSGSGTDFTLTISSLQPEDFATYYCQQYDSSPFTFGQGTKVEIK
B13: CFP0015 15L 93R (antibody, V domains shown)
VH: QVQLLESGGGLVQPGGSLRLSCAASGFTFSSYAMSWVRQAPGKGLEWVSAISGSGGSTYYADSVKGRFTISRDNSKNTLYLQMNSLRAEDTAVYYCARGDQIWYDQWYYFDMWGQGTLVTVSS
VL: DIQMTQSPSSLSASVGDRVTITCRASQSIEDDLAWYQQKPGKAPKLLIYEASNLQSGVPSRFSGSGSGTDFTLTISSLQPEDFATYYCQQYDRSPLTFGQGTKVEIK
B14: CFP0015 15L 93G (antibody, V domains shown)
VH: QVQLLESGGGLVQPGGSLRLSCAASGFTFSSYAMSWVRQAPGKGLEWVSAISGSGGSTYYADSVKGRFTISRDNSKNTLYLQMNSLRAEDTAVYYCARGDQIWYDQWYYFDMWGQGTLVTVSS
VL: DIQMTQSPSSLSASVGDRVTITCRASQSIEDDLAWYQQKPGKAPKLLIYEASNLQSGVPSRFSGSGSGTDFTLTISSLQPEDFATYYCQQYDGSPLTFGQGTKVEIK
B15: CFP0015 15L 92T (antibody, V domains shown)
VH: QVQLLESGGGLVQPGGSLRLSCAASGFTFSSYAMSWVRQAPGKGLEWVSAISGSGGSTYYADSVKGRFTISRDNSKNTLYLQMNSLRAEDTAVYYCARGDQIWYDQWYYFDMWGQGTLVTVSS
VL: DIQMTQSPSSLSASVGDRVTITCRASQSIEDDLAWYQQKPGKAPKLLIYEASNLQSGVPSRFSGSGSGTDFTLTISSLQPEDFATYYCQQYTSSPLTFGQGTKVEIK
B16: CFP0015 15L 94W (antibody, V domains shown)
VH: QVQLLESGGGLVQPGGSLRLSCAASGFTFSSYAMSWVRQAPGKGLEWVSAISGSGGSTYYADSVKGRFTISRDNSKNTLYLQMNSLRAEDTAVYYCARGDQIWYDQWYYFDMWGQGTLVTVSS
VL: DIQMTQSPSSLSASVGDRVTITCRASQSIEDDLAWYQQKPGKAPKLLIYEASNLQSGVPSRFSGSGSGTDFTLTISSLQPEDFATYYCQQYDSWPLTFGQGTKVEIK
B17: CFP0015 15L 92S (antibody, V domains shown)
VH: QVQLLESGGGLVQPGGSLRLSCAASGFTFSSYAMSWVRQAPGKGLEWVSAISGSGGSTYYADSVKGRFTISRDNSKNTLYLQMNSLRAEDTAVYYCARGDQIWYDQWYYFDMWGQGTLVTVSS
VL: DIQMTQSPSSLSASVGDRVTITCRASQSIEDDLAWYQQKPGKAPKLLIYEASNLQSGVPSRFSGSGSGTDFTLTISSLQPEDFATYYCQQYSSSPLTFGQGTKVEIK
B18: CFP0015 15L 96P (antibody, V domains shown)
VH: QVQLLESGGGLVQPGGSLRLSCAASGFTFSSYAMSWVRQAPGKGLEWVSAISGSGGSTYYADSVKGRFTISRDNSKNTLYLQMNSLRAEDTAVYYCARGDQIWYDQWYYFDMWGQGTLVTVSS
VL: DIQMTQSPSSLSASVGDRVTITCRASQSIEDDLAWYQQKPGKAPKLLIYEASNLQSGVPSRFSGSGSGTDFTLTISSLQPEDFATYYCQQYDSSPPTFGQGTKVEIK
B19: CFP0011 11L 30D (antibody, V domains shown)
VH: QVQLVQSGAEVKKPGSSVKVSCKASGGTFSSYAISWVRQAPGQGLEWMGGIIPIFGTANYAQKFQGRVTITADESTSTAYMELSSLRSEDTAVYYCARDMSEFLGWSNYYSYPMDVWGQGTTVTVSS
VL: DIQMTQSPSSLSASVGDRVTITCRASQSIDDDLAWYQQKPGKAPKLLIYHASSLQSGVPSRFSGSGSGTDFTLTISSLQPEDFATYYCQQSDNSPYTFGQGTKVEIK
B20: CFP0015 15L 94T (antibody, V domains shown)
VH: QVQLLESGGGLVQPGGSLRLSCAASGFTFSSYAMSWVRQAPGKGLEWVSAISGSGGSTYYADSVKGRFTISRDNSKNTLYLQMNSLRAEDTAVYYCARGDQIWYDQWYYFDMWGQGTLVTVSS
VL: DIQMTQSPSSLSASVGDRVTITCRASQSIEDDLAWYQQKPGKAPKLLIYEASNLQSGVPSRFSGSGSGTDFTLTISSLQPEDFATYYCQQYDSTPLTFGQGTKVEIK
B21: CFP0015 15L 93N (antibody, V domains shown)
VH: QVQLLESGGGLVQPGGSLRLSCAASGFTFSSYAMSWVRQAPGKGLEWVSAISGSGGSTYYADSVKGRFTISRDNSKNTLYLQMNSLRAEDTAVYYCARGDQIWYDQWYYFDMWGQGTLVTVSS
VL: DIQMTQSPSSLSASVGDRVTITCRASQSIEDDLAWYQQKPGKAPKLLIYEASNLQSGVPSRFSGSGSGTDFTLTISSLQPEDFATYYCQQYDNSPLTFGQGTKVEIK

Each binder was assayed against T1, human C5 (human, UniProt P01031 19-673; P01031 678-1676, Beta and alpha chains are disulfide-linked and the protein is glycosylated.) (assay: Biacore, captured antibody, pH 7.4, 37 C;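 note: biacore binding response of anti-C5 antibody light chain variants captured on chip with human C5 injected, ACES running buffer containing 1.2 mM CaCl₂, parent light chain antibody set to 100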).
T1 construct: Either in-house recombinant C5 or plasma derived C5 (CALBIOCHEM) was used; also called recombinant human C5; plasma derived human C5

| Binder | % binding (parent = 100) [%] |
| --- | --- |
| B1 | 21.7 |
| B2 | 100 |
| B3 | 7.5 |
| B4 | 10.6 |
| B5 | 50.7 |
| B6 | 46.1 |
| B7 | 45.1 |
| B8 | 103 |
| B9 | 3.6 |
| B10 | 100 |
| B11 | 59.7 |
| B12 | 11.8 |
| B13 | 96 |
| B14 | 78.6 |
| B15 | 74.1 |
| B16 | 4.5 |
| B17 | 51.3 |
| B18 | 49 |
| B19 | 71.4 |
| B20 | 53.1 |
| B21 | 80.4 |
